The supplement of paper PMC10065799, “High-throughput profiling of sequence recognition by tyrosine kinases and SH2 domains using bacterial peptide display” (eLife, 2023)

tested on: c-Src; experiment: phosphorylation enrichment, bacterial display (enrichment ratio); higher = better substrate or ligand; peptides without Tyr show the background
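Throughout, for SH2 binding enrichment of the phosphorylated peptide, bacterial display: peptide library displayed on the E. coli surface as eCPX fusions, selected cells deep-sequenced, score is each peptide's frequency after selection divided by its frequency in the input.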
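Throughout, for phosphorylation enrichment, bacterial display: 11-residue human phosphosite peptides and single-mutation variants displayed on the E. coli surface, counted by deep sequencing, each peptide's frequency after selection divided by its frequency in the unselected input library; frequency after pTyr selection over input frequency; kinase dosed for 20-30% of maximal phosphorylation in three min.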

Sequence | phosphorylation enrichment
TFMKQYPKVFL [CNBD1_Y70] | 0.486
VDTRAYLTSAT [MT-CO1_Y304_F305L] | 0.414
MVTSGYKAKMI [EFR3A_Y447_T451M] | 0.435
VTQEPYELFCE [CBL_Y368_Q367P_YF] | 1.19
DFLSSYSAVKQ [OAT_Y85_N89K] | 0.444
PKGIGYGQGAG [CSRP3_Y73] | 0.308
TFEFKYPEGSS [TGM4_Y440_YF] | 0.499
RAMRRYLERGE [ERBB3_Y680] | 0.455
LAAAKYKLNVD [SMARCA2_Y1190] | 0.489
AVAFVYFKSIG [ADGRL4_Y301_YF] | 0.426
VPANRYDLLRL [FARSB_Y72_C76R] | 0.393
TAGEPYHDIRF [BAP1_Y223] | 0.619
EFGSGYPNDPK [RNASEH2A_Y210_D205E_YF] | 0.539
EGLRRYLENGK [HLA-A_Y195_W191G] | 0.336
GVPLGYPIKAP [ELN_Y206] | 0.427
FETDFYQKGGK [INSR_Y1190_R1191Q_YF] | 0.427
QTEAEYRFIYM [PTPN11_Y511_Q510E] | 0.878
PGDGEYFTLQI [TP53_Y327_L323G] | 4.02
PSPTKYSLSPS [RANBP2_Y785_R784K] | 0.514
VAHAVYQAVLS [SMG1_Y549] | 4.58
FFDANYDGKEF [MAPRE2_Y162_YF] | 0.443
GADDSYFTARS [ZAP70_Y492_YF] | 0.417
DTFDPYLDIAL [USP36_Y268_V271I_YF] | 0.832
KLVQLYGVCTK [BTK_Y461] | 1.25
FADPFYDFEIE [ZC3H18_Y372_YF] | 3.4
EVVGRYSGHNA [MLH1_Y183_V185G] | 0.34
EEKKKYFDTKI [CASP5_Y103_YF] | 0.402
MDDDQYALLTT [EFCAB6_Y675] | 0.64
NGTVTYAIIAG [CDH23_Y1672_V1675I] | 1.33

biological target: Grb2 SH2 (UniProt P62993); experiment: SH2 binding enrichment of the phosphorylated peptide, bacterial display (enrichment ratio); higher = better substrate or ligand; peptides without Tyr show the background
Sequence (P62993 whole entry, looked up): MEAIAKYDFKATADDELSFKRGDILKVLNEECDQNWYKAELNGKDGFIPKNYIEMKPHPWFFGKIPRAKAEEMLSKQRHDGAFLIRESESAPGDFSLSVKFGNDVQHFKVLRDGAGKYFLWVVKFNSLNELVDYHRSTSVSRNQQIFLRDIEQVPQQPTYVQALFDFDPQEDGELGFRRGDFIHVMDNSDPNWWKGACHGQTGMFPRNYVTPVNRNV

Sequence | SH2 binding enrichment
TFMKQYPKVFL [CNBD1_Y70] | 0.836
VDTRAYLTSAT [MT-CO1_Y304_F305L] | 0.774
MVTSGYKAKMI [EFR3A_Y447_T451M] | 0.871
VTQEPYELFCE [CBL_Y368_Q367P_YF] | 1.01
DFLSSYSAVKQ [OAT_Y85_N89K] | 1.05
PKGIGYGQGAG [CSRP3_Y73] | 0.823
TFEFKYPEGSS [TGM4_Y440_YF] | 0.804
RAMRRYLERGE [ERBB3_Y680] | 0.716
LAAAKYKLNVD [SMARCA2_Y1190] | 0.812
AVAFVYFKSIG [ADGRL4_Y301_YF] | 0.928
VPANRYDLLRL [FARSB_Y72_C76R] | 0.765
TAGEPYHDIRF [BAP1_Y223] | 0.899
EFGSGYPNDPK [RNASEH2A_Y210_D205E_YF] | 0.879
EGLRRYLENGK [HLA-A_Y195_W191G] | 0.584
GVPLGYPIKAP [ELN_Y206] | 0.716
FETDFYQKGGK [INSR_Y1190_R1191Q_YF] | 0.797
QTEAEYRFIYM [PTPN11_Y511_Q510E] | 0.7
PGDGEYFTLQI [TP53_Y327_L323G] | 0.895
PSPTKYSLSPS [RANBP2_Y785_R784K] | 0.674
VAHAVYQAVLS [SMG1_Y549] | 1.11
FFDANYDGKEF [MAPRE2_Y162_YF] | 0.68
GADDSYFTARS [ZAP70_Y492_YF] | 0.723
DTFDPYLDIAL [USP36_Y268_V271I_YF] | 0.944
KLVQLYGVCTK [BTK_Y461] | 1.07
FADPFYDFEIE [ZC3H18_Y372_YF] | 1.42
EVVGRYSGHNA [MLH1_Y183_V185G] | 0.768
EEKKKYFDTKI [CASP5_Y103_YF] | 0.821
MDDDQYALLTT [EFCAB6_Y675] | 0.841
NGTVTYAIIAG [CDH23_Y1672_V1675I] | 0.78

biological target: SHP2-C SH2; experiment: as above

Sequence | SH2 binding enrichment
TFMKQYPKVFL [CNBD1_Y70] | 0.811
VDTRAYLTSAT [MT-CO1_Y304_F305L] | 0.569
MVTSGYKAKMI [EFR3A_Y447_T451M] | 0.469
VTQEPYELFCE [CBL_Y368_Q367P_YF] | 0.944
DFLSSYSAVKQ [OAT_Y85_N89K] | 4.04
PKGIGYGQGAG [CSRP3_Y73] | 0.43
TFEFKYPEGSS [TGM4_Y440_YF] | 0.463
RAMRRYLERGE [ERBB3_Y680] | 0.554
LAAAKYKLNVD [SMARCA2_Y1190] | 1.17
AVAFVYFKSIG [ADGRL4_Y301_YF] | 0.686
VPANRYDLLRL [FARSB_Y72_C76R] | 0.648
TAGEPYHDIRF [BAP1_Y223] | 0.776
EFGSGYPNDPK [RNASEH2A_Y210_D205E_YF] | 0.611
EGLRRYLENGK [HLA-A_Y195_W191G] | 0.615
GVPLGYPIKAP [ELN_Y206] | 0.666
FETDFYQKGGK [INSR_Y1190_R1191Q_YF] | 0.62
QTEAEYRFIYM [PTPN11_Y511_Q510E] | 0.553
PGDGEYFTLQI [TP53_Y327_L323G] | 0.677
PSPTKYSLSPS [RANBP2_Y785_R784K] | 0.535
VAHAVYQAVLS [SMG1_Y549] | 0.828
FFDANYDGKEF [MAPRE2_Y162_YF] | 0.759
GADDSYFTARS [ZAP70_Y492_YF] | 0.566
DTFDPYLDIAL [USP36_Y268_V271I_YF] | 0.548
KLVQLYGVCTK [BTK_Y461] | 0.981
FADPFYDFEIE [ZC3H18_Y372_YF] | 0.8
EVVGRYSGHNA [MLH1_Y183_V185G] | 0.629
EEKKKYFDTKI [CASP5_Y103_YF] | 0.698
MDDDQYALLTT [EFCAB6_Y675] | 0.544
NGTVTYAIIAG [CDH23_Y1672_V1675I] | 16.6

biological target: c-Src SH2; experiment: as above

Sequence | SH2 binding enrichment
TFMKQYPKVFL [CNBD1_Y70] | 0.559
VDTRAYLTSAT [MT-CO1_Y304_F305L] | 0.439
MVTSGYKAKMI [EFR3A_Y447_T451M] | 0.539
VTQEPYELFCE [CBL_Y368_Q367P_YF] | 0.719
DFLSSYSAVKQ [OAT_Y85_N89K] | 1.21
PKGIGYGQGAG [CSRP3_Y73] | 0.489
TFEFKYPEGSS [TGM4_Y440_YF] | 0.506
RAMRRYLERGE [ERBB3_Y680] | 0.411
LAAAKYKLNVD [SMARCA2_Y1190] | 0.386
AVAFVYFKSIG [ADGRL4_Y301_YF] | 0.628
VPANRYDLLRL [FARSB_Y72_C76R] | 3.31
TAGEPYHDIRF [BAP1_Y223] | 1.94
EFGSGYPNDPK [RNASEH2A_Y210_D205E_YF] | 0.376
EGLRRYLENGK [HLA-A_Y195_W191G] | 0.405
GVPLGYPIKAP [ELN_Y206] | 0.573
FETDFYQKGGK [INSR_Y1190_R1191Q_YF] | 0.564
QTEAEYRFIYM [PTPN11_Y511_Q510E] | 0.423
PGDGEYFTLQI [TP53_Y327_L323G] | 0.275
PSPTKYSLSPS [RANBP2_Y785_R784K] | 0.41
VAHAVYQAVLS [SMG1_Y549] | 1.02
FFDANYDGKEF [MAPRE2_Y162_YF] | 0.501
GADDSYFTARS [ZAP70_Y492_YF] | 0.402
DTFDPYLDIAL [USP36_Y268_V271I_YF] | 0.487
KLVQLYGVCTK [BTK_Y461] | 0.882
FADPFYDFEIE [ZC3H18_Y372_YF] | 0.693
EVVGRYSGHNA [MLH1_Y183_V185G] | 0.448
EEKKKYFDTKI [CASP5_Y103_YF] | 0.462
MDDDQYALLTT [EFCAB6_Y675] | 0.695
NGTVTYAIIAG [CDH23_Y1672_V1675I] | 1.43
